Experiments:
[1] = system: PBMC from healthy HCMV seropositive donors; test: IFN-γ ELISPOT assay; format: cell-based, human; settings: for ELISPOT Responses (SFC/10^6 PBMC): peptide 10 μg/ml
Protocol: ELISPOT assay was used to assess whether stimulation of PBMC from a large panel of seropositive donors with HCMV peptides could induce IFN-γ expression in T cells. Briefly, a 96-well nitrocellulose plate (Multiscreen, Millipore) was coated overnight at 4° C. with mouse monoclonal antibody anti-IFN-γ IgG1 (10 μg/ml; Mabtech Nacka, Sweden). The plate was then washed six times in Phosphate Buffered Saline (PBS) and blocked for 1 hour at 37° C. with PBS supplemented with 5% FCS. The blocking solution was removed and PBMC from healthy HCMV seropositive donors were added at a concentration of 2.5×10^5 cells per well in growth medium. These cells were incubated for 18 h at 37° C. in a 5% CO2 atmosphere in the presence of synthetic peptides from HCMV antigens (10 μg/ml). After incubation, the plate was washed three times with PBS supplemented with 0.05% Tween, followed by three washes with PBS alone. Biotinylated anti-IFN-γ (Mabtech, Nacka Sweden) detection antibody was added to each well at a final concentration of 1 μg/ml in PBS. The plates were incubated at room temperature in the dark for 4 h and then washed, as described above. Streptavidin-Alkaline phosphatase (Sigma) was added to each well at a final concentration of 1 μg/ml in PBS and incubated at room temperature in the dark for 2 h. After a final wash with PBS, the substrate, 5-bromo-4-chloro-3-indolyl phosphate and nitro blue tetrazolium, was added to each well and the plates incubated for 30 min at RT. Cells that produced IFN-γ in response to the presence of peptide were detected as purple spots on the nitrocellulose membrane of each well. The spots were counted automatically using a closed-circuit camera (CCD) and ImagePro image analysis software or automated ELISPOT reader (AID, Germany). The T cell precursor frequency for each peptide was based on the total number of PBMC in the well and the number of peptide-specific spots per well, over an average of 3 wells. The number of peptide-specific spots was also calculated by subtracting the negative control values, which consisted of PBMC without peptide (an average of 3 wells), from the test wells.
To determine whether memory CTL responses against the predictive HCMV potential epitopes could be detected in healthy seropositive virus carriers, we used the ELISPOT assay, which allows rapid identification of CTL epitopes without prolonged in vitro culture.
We tested epitopes that were restricted for HLA A1, A3, A24, A26, B7, B8, B27, B35 and B44 in ELISPOT assays, to determine whether memory T cell responses could be detected in healthy HLA-matched virus carriers. PBMC from a cohort of healthy virus carriers (Table 2) were stimulated with individual peptides and the cells that produced IFN-γ were detected. CTL epitopes that were restricted through either HLA A1, A3, A24, A26, B7, B8 or B27, were identified.
Thus, a total of 450 peptides were produced. ELISPOT assays were used to determine whether ex vivo memory T cell responses could be detected in a cohort of 14 healthy virus carriers (Table 2). PBMC were stimulated with individual peptides and the cells that produced IFN-γ were detected.

HLA A2 = biological target: T1, HLA A2 (Homo sapiens, UniProt P04439, D140Y/D185E/D98H/E176V/E277Q/G131W/G231S/I119V/I121R/I166T/I218V/L300P/L318F/N151K/N90K/P208A/P217A/Q86G/Q94H/R138H/R169H/T345S); format: cell-based; settings: HLA A2 on T2 cells; relative increase in HLA expression vs no peptide at 26° C.
T1 construct: endogenous in cells; host or cells: T2 cells

| Sequence | MSE (MHC stabilization efficiency) (HLA A2) | other results |
| --- | --- | --- |
| SLLSEFCRV (human cytomegalovirus IE1 CTL epitope peptide) | +++ (+++ = 200-300%) | ELISPOT Responses (SFC/10^6 PBMC) ([1]; donor ten): WS(471) SFC/10^6 PBMC |
| LIFGHLPRV (human cytomegalovirus gH CTL epitope peptide) | ++ (++ = 100-199%) | ELISPOT Responses (SFC/10^6 PBMC) ([1]; donor delta): SE(84) SFC/10^6 PBMC |
| RLLQTGIHV [reference compound] | ++ (++ = 100-199%) | ELISPOT Responses (SFC/10^6 PBMC) ([1]; donor thirteen): BS(57) SFC/10^6 PBMC |
| YILEETSVM (human cytomegalovirus IE1 CTL epitope peptide) [reference compound] | ++ (++ = 100-199%) | ELISPOT Responses (SFC/10^6 PBMC) ([1]; donor seven): SB(764) SFC/10^6 PBMC |
| ILDEERDKV (human cytomegalovirus IE1 CTL epitope peptide) | ++ (++ = 100-199%) |  |
| RIFAELEGV [reference compound] | ++ (++ = 100-199%) | donors recognizing the epitope in ELISPOT ([1]; cohort of eight HLA A2-positive healthy seropositive donors): 5 of the 8; ELISPOT Responses (SFC/10^6 PBMC) ([1]; donor fifteen): CP(275) SFC/10^6 PBMC; ELISPOT Responses (SFC/10^6 PBMC) ([1]; donor six): 170 SFC/10^6 PBMC; ELISPOT Responses (SFC/10^6 PBMC) ([1]; donor ten): 236 SFC/10^6 PBMC |
| NILQKIEKI (human cytomegalovirus pp150 CTL epitope peptide) | + (+ = 51-99%) |  |
| FLMEHTMPV (human cytomegalovirus IE2 CTL epitope peptide) | ++ (++ = 100-199%) | ELISPOT Responses (SFC/10^6 PBMC) ([1]; donor ten): WS(137) SFC/10^6 PBMC |
| DLDEGIMVV (human cytomegalovirus gB CTL epitope peptide) | − (− = 0-50%) |  |
| IILVAIAVV (human cytomegalovirus gB CTL epitope peptide) | + (+ = 51-99%) |  |
| MLNIPSINV [reference compound] | ++ (++ = 100-199%) | ELISPOT Responses (SFC/10^6 PBMC) ([1]; donor one): 178 SFC/10^6 PBMC; ELISPOT Responses (SFC/10^6 PBMC) ([1]; donor seven): 65 SFC/10^6 PBMC |
| LLIDPTSGL (human cytomegalovirus pp28 CTL epitope peptide) | + (+ = 51-99%) | ELISPOT Responses (SFC/10^6 PBMC) ([1]; donor beta): 77 SFC/10^6 PBMC; ELISPOT Responses (SFC/10^6 PBMC) ([1]; donor seven): 270 SFC/10^6 PBMC |
| LLLIVTPVV (human cytomegalovirus pp28 CTL epitope peptide) | ++ (++ = 100-199%) |  |
| DLVPLTVSV (human cytomegalovirus pp71 CTL epitope peptide) | + (+ = 51-99%) |  |
| PLREYLADL (human cytomegalovirus pp28 CTL epitope peptide) | − (− = 0-50%) |  |
| LLVLFIVYV (human cytomegalovirus US2 CTL epitope peptide) | − (− = 0-50%) | ELISPOT Responses (SFC/10^6 PBMC) ([1]; donor ten): WS(92) SFC/10^6 PBMC |
| ALDPYNEVV (human cytomegalovirus gH CTL epitope peptide) | +++ (+++ = 200-300%) |  |
| ALVNFLRHL (human cytomegalovirus pp150 CTL epitope peptide) | ++ (++ = 100-199%) | ELISPOT Responses (SFC/10^6 PBMC) ([1]; donor ten): WS(57) SFC/10^6 PBMC |
| YLMDELRYV (human cytomegalovirus gH CTL epitope peptide) | ++ (++ = 100-199%) |  |
| TLLVYLFSL (human cytomegalovirus US3 CTL epitope peptide) | ++ (++ = 100-199%) |  |
| LLFRTLLVYL (human cytomegalovirus US3 CTL epitope peptide) | +++ (+++ = 200-300%) | ELISPOT Responses (SFC/10^6 PBMC) ([1]; donor seven): 76 SFC/10^6 PBMC; ELISPOT Responses (SFC/10^6 PBMC) ([1]; donor ten): 77 SFC/10^6 PBMC |

| Sequence | MSE (MHC stabilization efficiency) (HLA A2) | other results |
| --- | --- | --- |
| LIEDFDIYV (human cytomegalovirus pp150 CTL epitope peptide) | ++ (++ = 100-199%) | ELISPOT Responses (SFC/10^6 PBMC) ([1]; donor ten): WS(88) SFC/10^6 PBMC |
| QLRSVIRAL (human cytomegalovirus pp50 CTL epitope peptide) | − (− = 0-50%) |  |
| YLTVFTVYL (human cytomegalovirus gH CTL epitope peptide) | ++ (++ = 100-199%) |  |
| RIEENLEGV (human cytomegalovirus pp150 CTL epitope peptide) | + (+ = 51-99%) |  |
| LLIPKSFTL (human cytomegalovirus pp71 CTL epitope peptide) | − (− = 0-50%) |  |
| CLQNALDIL (human cytomegalovirus IE1 CTL epitope peptide) | ++ (++ = 100-199%) | ELISPOT Responses (SFC/10^6 PBMC) ([1]; donor delta): SE(490) SFC/10^6 PBMC |
| SLVRLVYIL (human cytomegalovirus gH CTL epitope peptide) | + (+ = 51-99%) |  |
| VIGDQYVKV [reference compound] | ++ (++ = 100-199%) |  |
| TLLVLFIVYV (human cytomegalovirus US2 CTL epitope peptide) | − (− = 0-50%) | ELISPOT Responses (SFC/10^6 PBMC) ([1]; donor delta): SE(46) SFC/10^6 PBMC |
| FLLSHDAAL (human cytomegalovirus pp28 CTL epitope peptide) | ++ (++ = 100-199%) |  |
| NLALSTPFL (human cytomegalovirus IE2 CTL epitope peptide) | ++ (++ = 100-199%) |  |
| QLLIPKSFTL (human cytomegalovirus pp71 CTL epitope peptide) | − (− = 0-50%) |  |
| LLVEPCARV (human cytomegalovirus pp28 CTL epitope peptide) | ++ (++ = 100-199%) |  |
| ILGADPLRV (human cytomegalovirus IE1 CTL epitope peptide) | ++ (++ = 100-199%) |  |
| YLLYRMLKT (human cytomegalovirus gH CTL epitope peptide) | − (− = 0-50%) |  |
| TLTEDFFVV (human cytomegalovirus gH CTL epitope peptide) | ++ (++ = 100-199%) |  |
| LMQKFPKQV (human cytomegalovirus IE2 CTL epitope peptide) | + (+ = 51-99%) |  |
| GLDDLMSGL (human cytomegalovirus gB CTL epitope peptide) | ++ (++ = 100-199%) |  |
| QMLLALARL (human cytomegalovirus gB CTL epitope peptide) | + (+ = 51-99%) |  |
| SAIIGIYLL (human cytomegalovirus gH CTL epitope peptide) | − (− = 0-50%) |  |

— patent publication US7524503B2, “Human cytomegalovirus (HCMV) cytotoxic T cell epitopes, polyepitopes compositions comprising same and diagnostic and prophylactic and therapeutic uses therefor” (priority 2001, dated 2009)
